Measured values as given in the supplement of paper PMC10724198.
± gives the standard deviation of the averaged measurements.

What was measured:
Assay in all cases: protein stability index of tFT-peptide fusion (C-terminal peptide) (PSI (0-1 scale)); higher = more stable (slower turnover)
[1] = test system: Saccharomyces cerevisiae; conditions: temperature: 30 C
Protocol: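 MPS profiling in S. cerevisiae of the yeast C-terminome library: the last 12 aa of each annotated ORF are fused to the C-terminus of a sfGFP-mCherry timer, after a GGGS linker. Cells are FACS-sorted into 8 mCherry/sfGFP bins and deep-sequenced. PSI runs from 0 (unstable) to 1 (stable); wild type and das1Δ backgrounds, two technical replicates each.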

[2] = test system: Saccharomyces cerevisiae; conditions: genetic background: wild type; temperature: 30 C
[3] = test system: Saccharomyces cerevisiae
Protocol: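 MPS profiling in S. cerevisiae of the tFT-X12 degron library: putative degron peptides plus stable controls, 12 aa, fused to the C-terminus of a sfGFP-mCherry timer. Cells are FACS-sorted into 8 mCherry/sfGFP bins and deep-sequenced. PSI runs from 0 (unstable) to 1 (stable). Backgrounds are wild type, das1Δ and doa10Δ at 30 °C, and wild type, das1Δ, cdc34-1 and cdc53-1 at 37 °C; 2-3 technical replicates each.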

[4] = genetic background: das1 deletion
[5] = genetic background: cdc34-1, temperature: 37 C
[6] = genetic background: cdc53-1, temperature: 37 C
[7] = genetic background: das1 deletion, temperature: 30 C
[8] = genetic background: das1 deletion, temperature: 37 C
[9] = genetic background: doa10 deletion, temperature: 30 C
[10] = genetic background: wild type, temperature: 30 C
[11] = genetic background: wild type, temperature: 37 C

Sequence | protein stability index [1, 4] | protein stability index ([1]; genetic background: wild type) | protein stability index [2] | protein stability index [3, 5] | protein stability index [3, 6] | protein stability index [3, 7] | protein stability index [3, 8] | protein stability index [3, 9] | protein stability index [3, 10] | protein stability index [3, 11]
AAKYLNSLSVNQ [PTP1 C-terminal 12 aa] | 0.698 ± 0.029 | 0.686 ± 0.043 | – | – | – | – | – | – | – | –
ACDNSGLIGIFQ [VPS15 C-terminal 12 aa] | 0.723 ± 0.02 | 0.681 ± 0.069 | – | – | – | – | – | – | – | –
ACFTRLPTPAIL [TRM8 C-terminal 12 aa] | 0.68 ± 0.0089 | 0.6593 ± 0.0055 | – | – | – | – | – | – | – | –
ACFVFSPSAMVT [BRP1 C-terminal 12 aa] | 0.6493 ± 0.0022 | 0.637 ± 0.028 | – | – | – | – | – | – | – | –
ADARDKFVDLYN [ADD66 C-terminal 12 aa] | 0.696 ± 0.027 | 0.708 ± 0.1 | – | – | – | – | – | – | – | –
ADRASVEIIDAN [PFA3 C-terminal 12 aa] | 0.705 ± 0.021 | 0.7046 ± 0.0057 | – | – | – | – | – | – | – | –
ADWKAQRGEDGK [PNG1 C-terminal 12 aa] | 0.67376 ± 7.2e-05 | 0.703 ± 0.014 | – | – | – | – | – | – | – | –
AEHHLQTFLSEK [ISC1 C-terminal 12 aa] | 0.6488 ± 0.0013 | 0.641 ± 0.02 | – | – | – | – | – | – | – | –
AELILETSYDKF [MRX1 C-terminal 12 aa] | 0.729 ± 0.011 | 0.722 ± 0.055 | – | – | – | – | – | – | – | –
AESPEEADVEMS [PUP2 C-terminal 12 aa] | 0.6788 ± 0.0056 | 0.707 ± 0.052 | – | – | – | – | – | – | – | –
AFLKIFENAMPN [ADD37 C-terminal 12 aa] | 0.725 ± 0.019 | 0.678 ± 0.0089 | – | – | – | – | – | – | – | –
AFRSLQKSKKKK [PKH3 C-terminal 12 aa] | 0.717 ± 0.042 | 0.793 ± 0.034 | – | – | – | – | – | – | – | –
AGEKTVAELMEN [PYP1 C-terminal 12 aa] | 0.679 ± 0.025 | 0.687 ± 0.022 | – | – | – | – | – | – | – | –
AGIRKRDWDSTQ [RFM1 C-terminal 12 aa] | 0.717 ± 0.02 | 0.691 ± 0.055 | – | – | – | – | – | – | – | –
AIQEYNARYPLN [ABF2 C-terminal 12 aa] | 0.708 ± 0.0085 | 0.707 ± 0.021 | – | – | – | – | – | – | – | –
AKCGEWTPELSS [CPR2 C-terminal 12 aa] | 0.71451 ± 0.00067 | 0.731 ± 0.014 | – | – | – | – | – | – | – | –
AKERLNPPSNRR [NIP1 C-terminal 12 aa] | 0.708 ± 0.014 | 0.688 ± 0.02 | – | – | – | – | – | – | – | –
AKGKGKSDEKIL [YIL086C C-terminal 12 aa] | 0.7026 ± 0.0025 | 0.73 ± 0.12 | – | – | – | – | – | – | – | –
ALNGDCCLWRWV [SWD3 C-terminal 12 aa] | 0.708 ± 0.015 | 0.292 ± 0.013 | – | – | – | – | – | – | – | –
ALNRADKMSTIG [URH1 C-terminal 12 aa] | 0.676 ± 0.027 | 0.6665 ± 0.0042 | – | – | – | – | – | – | – | –
ALSEYMENTSGL [RSC9 C-terminal 12 aa] | 0.696 ± 0.059 | 0.728 ± 0.014 | – | – | – | – | – | – | – | –
ANLFSSKKKAKL [RSB1 C-terminal 12 aa] | 0.803 ± 0.058 | 0.822 ± 0.061 | – | – | – | – | – | – | – | –
ANRQCYVNGTKT [YDR250C C-terminal 12 aa] | 0.663 ± 0.0094 | 0.69065 ± 0.00059 | – | – | – | – | – | – | – | –
APAEQTQGEPTK [BMH2 C-terminal 12 aa] | 0.71 ± 0.013 | 0.677 ± 0.012 | – | – | – | – | – | – | – | –

Sequence | protein stability index [1, 4] | protein stability index ([1]; genetic background: wild type) | protein stability index [2] | protein stability index [3, 5] | protein stability index [3, 6] | protein stability index [3, 7] | protein stability index [3, 8] | protein stability index [3, 9] | protein stability index [3, 10] | protein stability index [3, 11]
APDNGPTVEEVD [SSA4 C-terminal 12 aa] | 0.69 ± 0.0087 | 0.662 ± 0.023 | – | – | – | – | – | – | – | –
APEEEAYKPNQN [KRR1 C-terminal 12 aa] | 0.708 ± 0.0089 | 0.671 ± 0.012 | – | – | – | – | – | – | – | –
APRLRLEDIFQQ [RET1 C-terminal 12 aa] | 0.752 ± 0.011 | 0.7 ± 0.052 | – | – | – | – | – | – | – | –
AQGKLIMNVEKF [AST1 C-terminal 12 aa] | 0.712 ± 0.05 | 0.689 ± 0.019 | – | – | – | – | – | – | – | –
AQQNYRLWLSSF [ICY1 C-terminal 12 aa] | 0.7166 ± 0.0069 | 0.6246 ± 0.0033 | – | – | – | – | – | – | – | –
ARGYVNVMDNIQ [SEC16 C-terminal 12 aa] | 0.6727 ± 0.0025 | 0.678 ± 0.042 | – | – | – | – | – | – | – | –
ARIWKYKKIAPN [TUP1 C-terminal 12 aa] | 0.726 ± 0.0075 | 0.706 ± 0.0071 | – | – | – | – | – | – | – | –
ARMLARECRRHM [CDC23 C-terminal 12 aa] | 0.7022 ± 0.00087 | 0.698 ± 0.054 | – | – | – | – | – | – | – | –
ASRFAQFLKQDA [MET16 C-terminal 12 aa] | 0.717 ± 0.012 | 0.764 ± 0.15 | – | – | – | – | – | – | – | –
ATALSGHKANCN [MTQ1 C-terminal 12 aa] | 0.6878 ± 0.0049 | 0.6424 ± 0.0012 | – | – | – | – | – | – | – | –
ATFFRYLSNIFT [AGP3 C-terminal 12 aa] | 0.723 ± 0.0077 | 0.698 ± 0.0078 | – | – | – | – | – | – | – | –
VWSCILPMVYVW | – | – | 0.203 ± 0.0046 | 0.111 ± 0.066 | 0.109 ± 0.0066 | 0.156 ± 0.022 | 0.1639 ± 0.00068 | 0.135 ± 0.016 | 0.158 ± 0.0067 | 0.157 ± 0.011
VWWWGAVGWLMV | – | – | 0.454 ± 0.0008 | 0.572 ± 0.036 | 0.602 ± 0.028 | 0.528 ± 0.026 | 0.628 ± 0.016 | 0.392 ± 0.017 | 0.416 ± 0.018 | 0.547 ± 0.01
WCVRRVRFVMGC | – | – | 0.31 ± 0.0046 | 0.414 ± 0.019 | 0.458 ± 0.05 | 0.316 ± 0.024 | 0.479 ± 0.0081 | 0.2183 ± 0.0013 | 0.234 ± 0.027 | 0.378 ± 0.013
WFLVFLRVGDGP | – | – | 0.474 ± 0.01 | 0.539 ± 0.01 | 0.566 ± 0.0072 | 0.362 ± 0.027 | 0.6 ± 0.0068 | 0.353 ± 0.039 | 0.378 ± 0.023 | 0.545 ± 0.016
WKNIHGVFVFVM | – | – | 0.403 ± 0.012 | 0.5472 ± 0.001 | 0.48 ± 0.014 | 0.389 ± 0.028 | 0.5696 ± 0.0012 | 0.25 ± 0.0047 | 0.284 ± 0.03 | 0.445 ± 0.0072
WLCLGLVVGLFL | – | – | 0.433 ± 0.041 | 0.44 ± 0.0069 | 0.488 ± 0.013 | 0.383 ± 0.029 | 0.459 ± 0.0058 | 0.339 ± 0.031 | 0.362 ± 0.017 | 0.47 ± 0.015
WLCWVVWFPGLF | – | – | 0.244 ± 0.035 | 0.395 ± 0.035 | 0.509 ± 0.028 | 0.369 ± 0.032 | 0.541 ± 0.012 | 0.1615 ± 0.00068 | 0.171 ± 0.012 | 0.297 ± 0.015
WLFFVVLPVKAF | – | – | 0.231 ± 0.0071 | 0.0666 ± 0.0023 | 0.146 ± 0.02 | 0.178 ± 0.038 | 0.28 ± 0.016 | 0.104 ± 0.023 | 0.131 ± 0.026 | 0.154 ± 0.001
WLLSFLRFLVLR | – | – | 0.393 ± 0.029 | 0.124 ± 0.015 | 0.0923 ± 0.027 | 0.322 ± 0.045 | 0.308 ± 0.02 | 0.8 ± 0.014 | 0.298 ± 0.026 | 0.32 ± 0.021
WLVCAGWVVLSC | – | – | 0.265 ± 0.033 | 0.153 ± 0.0026 | 0.2052 ± 0.00049 | 0.187 ± 0.023 | 0.2772 ± 0.0018 | 0.175 ± 0.0096 | 0.175 ± 0.026 | 0.222 ± 0.016
WLYPVFKISYCV | – | – | 0.381 ± 0.014 | 0.492 ± 0.0089 | 0.533 ± 0.024 | 0.357 ± 0.032 | 0.5131 ± 0.0049 | 0.282 ± 0.0049 | 0.33 ± 0.021 | 0.464 ± 0.017
WNIVKHREDMLS | – | – | 0.524 ± 0.14 | 0.685 ± 0.013 | 0.768 ± 0.015 | 0.638 ± 0.021 | 0.7359 ± 0.0046 | 0.63 ± 0.033 | 0.621 ± 0.027 | 0.7213 ± 0.0053
